Measurements published in paper PMC3357421, “Conserved Orb6 Phosphorylation Sites Are Essential for Polarized Cell Growth in Schizosaccharomyces pombe” (PLoS ONE, 2012).

Target: T1, His6-HA-Nak1 (S. pombe, UniProt O75011 1-652)
T1 construct: Nak1, Ser/Thr kinase of fission yeast (Schizosaccharomyces pombe); HA-Nak1 inserted into pET33b; also called pET33b-His6-HA-Nak1; source: E. coli BL21, purified (NiNTA agarose)
T1 sequence (looked up): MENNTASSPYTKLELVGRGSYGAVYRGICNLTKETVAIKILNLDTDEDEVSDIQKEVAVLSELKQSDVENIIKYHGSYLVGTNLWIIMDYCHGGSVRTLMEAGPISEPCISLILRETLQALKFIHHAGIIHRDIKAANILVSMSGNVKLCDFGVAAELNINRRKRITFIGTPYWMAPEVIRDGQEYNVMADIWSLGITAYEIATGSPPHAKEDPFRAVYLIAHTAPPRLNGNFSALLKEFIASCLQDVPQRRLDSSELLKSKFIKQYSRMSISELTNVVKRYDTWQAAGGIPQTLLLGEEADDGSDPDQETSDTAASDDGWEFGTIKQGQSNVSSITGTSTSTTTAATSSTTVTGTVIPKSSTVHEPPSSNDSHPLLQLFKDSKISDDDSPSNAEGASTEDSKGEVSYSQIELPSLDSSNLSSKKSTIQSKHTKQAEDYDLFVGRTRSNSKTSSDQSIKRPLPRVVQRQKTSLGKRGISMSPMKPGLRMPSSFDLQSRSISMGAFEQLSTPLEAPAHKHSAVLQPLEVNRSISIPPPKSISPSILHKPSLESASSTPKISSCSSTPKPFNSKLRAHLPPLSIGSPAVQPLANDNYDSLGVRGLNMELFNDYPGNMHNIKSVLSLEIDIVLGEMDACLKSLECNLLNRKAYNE
Test: pull-down; GST or GST-Orb6 bound to Glutathione Sepharose 4B beads incubated with His6-HA-Nak1 for 2 h; washed 3 times with 150 mM NaCl, 1 mM DTT, phosphate pH 7.3; western blot with anti-HA (12CA5)
Conditions: both partners purified

binding result: binds
B1: GST-Orb6 (enzyme, S. pombe, UniProt O13310 1-469, looked up)
chain: MDKNDYLHFERNPSLFPKSTLDKVQKTKKYIEHYYKVAVDHAVERNQRRINLEQRLATERGSEERKNRQLRASGEKESQFLRFRRTRLSLEDFSTIKVIGKGAFGEVRLVQKLDTGKIYAMKSLLKTEMFKRDQLAHVKAERDLLVESDSPWVVSLYYAFQDSLYLYLIMEFLPGGDLMTMLINYDTFSEDVTRFYMAECVLAIADVHRMGYIHRDIKPDNILIDRDGHIKLSDFGLSTGFYKQDQSASYMKPRTGNTVKRGQMVDAIWLTMSSKDKMATWKKNRRVMAYSTVGTPDYIAPEIFLQQGYGQDCDWWSLGAIMFECLIGWPPFCSENSHETYRKIINWRETLTFPNDIHLSIEARDLMDRLMTDSEHRLGRGGAIEIMQHPFFTGIDWDHIRETAAPFIPNLKSITDTHYFPVDELEQVPEQPVTQQPASVDPQTLEQTNLAFLGYTYKKFNYLTMKGAL
notes: Orb6, Ndr-related Ser/Thr kinase of fission yeast (Schizosaccharomyces pombe); PCR-amplified cDNA fragment encoding Orb6 in pGEX-5X-1 (a pGEX-6p-1 construct was also made); also called pGEX-5X-1-Orb6; source: E. coli BL21, purified (Glutathione Sepharose 4B)
